Experimental data as given in patent US20190040149A1 (Innovent, published 2019).
Positions count from the first letter of the chain named.

B1: Antibody A, IgG1 format expressed in yeast (antibody, V domains shown)
VH: QVQLVQSGAEVKKPGASVKVSCKASGYTFTSYYMHWVRQAPGQGLEWMGIINPSGGSTSYAQKFQGRVTMTRDTSTSTVYMELSSLRSEDTAVYYCAKEGVADGYGLVDVWGQGTMVTISS
VL: EIVLTQSPATLSLSPGERATLSCRASQSVSSYLAWYQQKPGQAPRLLIYDASKRATGIPARFSGSGSGTDFTLTISSLEPEDFAVYYCDQRNNWPLTFGGGTKVEIK
notes: Tested in IgG1 format, expressed in yeast
B2: Antibody C, IgG1 format expressed in yeast (antibody, V domains shown)
VH: B1 VH with S31A, Y32Q, S57E, S59G, I119V
VL: B1 VL
notes: as for B1
B3: Antibody E, IgG1 format expressed in yeast (antibody, V domains shown)
VH: B1 VH with Y32N, G55E, S59G, I119V
VL: B1 VL
notes: as for B1

Columns and labels:
human PD-1_HIS = target: T1, human PD-1_HIS (human, UniProt Q15116 25-167, limits assumed); experiment: bio-layer interferometry (ForteBio), human PD-1_HIS in solution, IgG on sensor tip
T1 construct: not shown: His tag
T1 sequence (Q15116 25-167 limits assumed): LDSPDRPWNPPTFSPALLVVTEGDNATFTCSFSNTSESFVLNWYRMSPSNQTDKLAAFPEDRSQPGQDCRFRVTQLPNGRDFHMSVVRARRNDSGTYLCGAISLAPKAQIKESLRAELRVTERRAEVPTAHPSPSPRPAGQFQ
Method: Briefly, ForteBio affinity measurements were performed by loading IgGs online onto AHQ sensors. Sensors were equilibrated off-line in assay buffer for 30 min and then monitored on-line for 60 seconds for baseline establishment. Sensors with loaded IgGs were exposed to 100 nM antigen for 5 min, afterwards they were transferred to assay buffer for 5 min for off-rate measurement. Kinetics was analyzed using the 1:1 binding model.

murine PD-1 on CHO cells = target: T2, murine PD-1 on CHO cells (mouse, UniProt Q02242 25-288); experiment: flow cytometry on CHO cells with murine PD-1
T2 sequence: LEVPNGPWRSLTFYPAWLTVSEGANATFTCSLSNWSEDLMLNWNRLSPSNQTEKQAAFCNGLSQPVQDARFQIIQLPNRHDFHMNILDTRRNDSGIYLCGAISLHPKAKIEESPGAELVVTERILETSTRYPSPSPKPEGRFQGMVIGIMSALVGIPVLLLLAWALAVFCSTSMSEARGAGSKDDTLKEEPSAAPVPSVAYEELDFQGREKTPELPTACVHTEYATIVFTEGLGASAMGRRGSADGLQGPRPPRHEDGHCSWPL
Method: (§1) Cells are then washed 3×, and are incubated with a secondary antibody (PE-labelled, at final concentration of 5 μg/ml) in PBS 1% BSA for 30 min on ice (protected from light). Cells are washed 3× and analyzed via flow cytometry. Flow cytometry is performed on an Accuri C6 system (BD Biosciences) and MFIs are calculated on the C6 software. EC50 s are calculated on Graphpad software.

[1] = target: T3, human PD-1 (soluble antigen of the MSD assay, b-PD-1 monomer) (human, UniProt Q15116 25-170, limits assumed, biotinylated (b-PD-1), site not stated); experiment: MSD solution equilibrium titration, monovalent KD
T3 construct: The antigen format of the 'avid' measurement is not described
T3 sequence (Q15116 25-170 limits assumed): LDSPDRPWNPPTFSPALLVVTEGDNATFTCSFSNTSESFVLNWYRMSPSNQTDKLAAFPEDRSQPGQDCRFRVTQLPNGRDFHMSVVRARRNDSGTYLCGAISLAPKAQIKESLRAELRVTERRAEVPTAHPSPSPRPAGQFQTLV
Method: (§2) Equilibrium affinity measurements are performed as previously described (Estep, P., et al., MAbs, 2013. 5(2): p. 270-8). Solution equilibrium titrations (SET) are performed in PBS+0.1% IgG-Free BSA (PBSF) where antigen (b-PD-1 monomer) is held constant at 10-100 pM and is incubated with 3- to 5-fold serial dilutions of Fab or mAbs starting at 5-100 nM (experimental condition is sample dependent). Antibodies diluted at 20 nM in PBS are coated onto standard bind MSD-ECL plates overnight at 4° C. or at room temperature for 30 min. Plates are blocked with BSA for 30 min whilst shaking at 700 rpm. Plates are then washed 3× with wash buffer (PBSF+0.05% Tween 20). SET samples are applied and incubated on the plates for 150 s with shaking at 700 rpm followed by one wash. Antigen captured on a plate is detected with 250 ng/mL sulfotag-labeled streptavidin in PBSF by incubation on the plate for 3 min. The plates are washed three times with wash buffer and are then read on the MSD Sector Imager 2400 instrument using 1× Read Buffer T with surfactant. The percent free antigen is plotted as a function of titrated antibody in Prism and fit to a quadratic equation to extract the KD. To improve throughput, liquid handling robots are used throughout MSD-SET experiments, including for SET sample preparation.

[2] = target: T4, murine PD-1 (soluble antigen of the MSD assay) (mouse, UniProt Q02242 25-169, limits assumed); experiment: MSD solution equilibrium titration, monovalent KD
T4 construct: also called mouse PD-1
T4 sequence: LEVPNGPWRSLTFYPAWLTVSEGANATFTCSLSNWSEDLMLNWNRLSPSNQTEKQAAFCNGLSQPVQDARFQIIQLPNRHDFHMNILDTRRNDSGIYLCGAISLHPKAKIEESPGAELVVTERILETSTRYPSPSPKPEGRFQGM
Method: as §2

[3] = target: T5, human PD-1 on cells (CHO cells; T cells in the mixed lymphocyte reaction) (human, UniProt Q15116 25-288); experiment: cell-based or functional assay
T5 sequence (Q15116 25-288 limits assumed): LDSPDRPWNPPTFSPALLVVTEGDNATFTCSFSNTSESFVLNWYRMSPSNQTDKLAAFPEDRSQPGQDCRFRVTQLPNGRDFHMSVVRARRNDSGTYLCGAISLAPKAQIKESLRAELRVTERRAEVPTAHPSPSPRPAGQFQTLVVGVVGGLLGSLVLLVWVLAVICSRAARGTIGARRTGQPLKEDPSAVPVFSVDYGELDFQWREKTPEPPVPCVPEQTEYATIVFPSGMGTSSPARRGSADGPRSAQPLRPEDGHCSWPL

[4] = target: T5, human PD-1 on cells (CHO cells; T cells …); experiment: flow cytometry, remaining PD-L2-FITC signal after 100 nM antibody; competitor PD-L2-FITC
Method: CHO cells 0.2×10⁶ are incubated with the experimental antibody (100 nM) for 30 min in PBS 1% BSA on ice. […] Cells are washed 3× and analyzed via flow cytometry. Flow cytometry is performed on an Accuri C6 system (BD Biosciences) and MFIs are calculated on the C6 software. EC50 s are calculated on Graphpad software.

[5] = target: T3, human PD-1 (soluble antigen of the MSD …); experiment: MSD solution equilibrium titration, avid KD
Method: as §2

[6] = target: T5, human PD-1 on cells (CHO cells; T cells …); experiment: flow cytometry on CHO cells with human PD-1 (n=1)
Method: as §1

[7] = target: T5, human PD-1 on cells (CHO cells; T cells …); experiment: cell-based or functional assay; remark: listed apart in the source
[8] = target: T4, murine PD-1 (soluble antigen of the MSD …); experiment: MSD solution equilibrium titration, avid KD
Method: as §2

| Binder | Kd (human PD-1_HIS) [nM] | EC50 (murine PD-1 on CHO cells) [nM] | Kd [1] [nM] | Kd [2] [nM] | IFNg secretion fold change vs. IgG control, 0.01 nM IgG [3] [fold] | IFNg secretion fold change vs. IgG control, 0.1 nM IgG [3] [fold] | IFNg secretion fold change vs. IgG control, 1 nM IgG [3] [fold] | IFNg secretion fold change vs. IgG control, 10 nM IgG [3] [fold] | IFNg secretion fold change vs. IgG control, 100 nM IgG [3] [fold] | IFNγ in supernatant, 0.01 nM IgG [3] [pg/mL] | IFNγ in supernatant, 0.1 nM IgG [3] [pg/mL] | IFNγ in supernatant, 1 nM IgG [3] [pg/mL] | IFNγ in supernatant, 10 nM IgG [3] [pg/mL] | IFNγ in supernatant, 100 nM IgG [3] [pg/mL] | MFI (PD-L2-FITC) [4] [MFI] | Kd [5] [nM] | EC50 [6] [nM] | IL-2 in supernatant, 0.01 nM IgG [7] [pg/mL] | IL-2 in supernatant, 0.1 nM IgG [7] [pg/mL] | IL-2 in supernatant, 1 nM IgG [7] [pg/mL] | other results |
| --- | --- | --- | --- | --- | --- | --- | --- | --- | --- | --- | --- | --- | --- | --- | --- | --- | --- | --- | --- | --- | --- |
| B1 | 4.3 | 11 | 4.9 | 9.6 | 1.49 | 1.49 | 1.11 | 1.37 | 1.52 | 22100 | 16400 | 12900 | 18400 | 22600 | 90900 | 0.049 | 10.2 | 708 | 586 | 618 | IL-2 in supernatant, 10 nM IgG [7]: 975 pg/mL; IL-2 in supernatant, 100 nM IgG [7]: 1410 pg/mL; IL-2 secretion fold change vs. IgG control, 0.01 nM IgG [7]: 1.37 fold; IL-2 secretion fold change vs. IgG control, 0.1 nM IgG [7]: 1.15 fold; IL-2 secretion fold change vs. IgG control, 1 nM IgG [7]: 1.23 fold; IL-2 secretion fold change vs. IgG control, 10 nM IgG [7]: 1.87 fold; IL-2 secretion fold change vs. IgG control, 100 nM IgG [7]: 2.28 fold |
| B2 | 1 | 2.88 | 0.12 | 1.9 | 0.97 | 1.5 | 1.82 | 1.79 | 1.84 | 14400 | 16500 | 21100 | 24100 | 27400 | 30100 | 0.0093 | 4.12 | 519 | 587 | 914 | Kd [8]: 0.13 nM; IL-2 in supernatant, 10 nM IgG [7]: 1190 pg/mL; IL-2 in supernatant, 100 nM IgG [7]: 1620 pg/mL; IL-2 secretion fold change vs. IgG control, 0.01 nM IgG [7]: 1.01 fold; IL-2 secretion fold change vs. IgG control, 0.1 nM IgG [7]: 1.15 fold; IL-2 secretion fold change vs. IgG control, 1 nM IgG [7]: 1.83 fold; IL-2 secretion fold change vs. IgG control, 10 nM IgG [7]: 2.29 fold; IL-2 secretion fold change vs. IgG control, 100 nM IgG [7]: 2.62 fold |
| B3 | 1.2 | 5.04 | 0.091 | 1.1 | 0.96 | 1.26 | 1.86 | 2.01 | 1.76 | 14300 | 13800 | 21600 | 27100 | 26300 | 38700 | 0.022 | 4.59 | 580 | 614 | 978 | Kd [8]: 0.33 nM; IL-2 in supernatant, 10 nM IgG [7]: 1360 pg/mL; IL-2 in supernatant, 100 nM IgG [7]: 1980 pg/mL; IL-2 secretion fold change vs. IgG control, 0.01 nM IgG [7]: 1.13 fold; IL-2 secretion fold change vs. IgG control, 0.1 nM IgG [7]: 1.21 fold; IL-2 secretion fold change vs. IgG control, 1 nM IgG [7]: 1.95 fold; IL-2 secretion fold change vs. IgG control, 10 nM IgG [7]: 2.61 fold; IL-2 secretion fold change vs. IgG control, 100 nM IgG [7]: 3.2 fold |
